{"source": "patent US20100322948A1", "about": "“Bone morphogenetic protein (BMP)-binding domains of proteins of the repulsive guidance molecule (RGM) protein family and functional fragments thereof, and use of same” (ABBOTT GMBH & CO. KG, priority 2007, published 2010)", "tested_on": "NTera-2 cells", "test": "Neurite growth test using NTera-2 cells (test method 2)", "format": "cell-based, human", "settings": "FIG. 7B", "description": "Test Method 2: Illustration of the Effect of RGM Peptides in the Neurite Growth Test, Using NTera-2 Cells\nThe human pluripotent cancer cell line NTera2 (DSMZ ACC527) is established as a cell culture model. Neurites grow from cell aggregates and form a corona of neurites around the particular aggregate.\nNTera-2 cells are human embryonic teratocarcinoma cells. A carcinoma is a cancerous tumor, whereas a teratoma or teratocarcinoma is a mixed tumor of the germ cells composed of various differentiated and undifferentiated tissues, and therefore, the same as for the SH-SY5Y culture, comprises a heterogeneous population. The tumor is usually present in an encapsulated form in the various types, such as hair, skin, teeth, muscle, and nerve tissue. The tumors typically originate in the ovaries, testes, abdominal cavity, or brain. The cell line was cloned from the Tera-2 line, obtained from a metastatic teratocarcinoma in a person.\nNTera-2 cells are epithelial, adherently growing cells which form a monolayer. Due to the large number of granular particles which they contain, NTera-2 cells may be easily differentiated from the other cells. The cells were cultivated by 1:5 splitting twice a week. The cells of this mixed culture may be differentiated using retinoic acid in neuronal cells.\nCulture Medium Fur Growth […]\nIn order to differentiate the cells it was necessary to introduce antibiotic into the culture medium of the cell line due to the fact that the cells remained in the same culture flask for three weeks. Previously, the undifferentiated culture had been detrypsinated and the cell count determined using a Neubauer counting chamber. […] 25 μL retinoic acid (10 μM) was readded to the medium under dim light conditions. […]\nThe culture was stored in an incubator at 37° C. with 5% CO2 gassing, and the medium was changed at the beginning and at the end of the week. […] After three weeks the cells were differentiated and were ready for use in experiments. […]\nDifferent plate formats were used for the tests. For the isolation of protein, 6-well plates were necessary for recovering a sufficient quantity. […]", "note": "“Also recorded” adds a separate entry of the source.", "data": [{"molecule": "fragment #786: Fc fusion protein of human RGM A amino acids 47-168 (protein, left off: small tags and cut ends; a dimerising Fc or GST) PCKILKCNSEFWSATSGSHAPASDDTPEFCAALRSYALCTRRTARTCRGDLAYHSAVHGIEDLMSQHNCSKDGPTSQPRLRTLPPAGDSQERSDSPEICHYEKSFHKHSATPNYTHCGLFGD", "values": [{"measurement": "inhibition of neurite growth", "value": "inhibit the neurite growth"}, {"measurement": "inhibitory activity in neurite growth test compared with 316-386-Fc", "setting": "listed as 47-168-Fc", "value": "much stronger effect; also recorded: significantly higher activity"}]}]}
